Data: patent US20080039532A1, “Compounds For Specific Viral Target” (priority 2004, published 2008)
Values joined by “and” are separate entries in the source; they are usually repeats but may differ in a detail not shown here. Equal values may be shown once.

Biological target: N-heptad repeat of HIV-1's gp41 (HIV-1 strain IIIB) (HIV-1 strain IIIB), P04578
Test: cell-based or functional assay

N-heptad repeat of HIV-1's gp41 (HIV-1 strain IIIB) (HIV-1 strain IIIB), P04578, sequence (P04578 540-590 limits assumed): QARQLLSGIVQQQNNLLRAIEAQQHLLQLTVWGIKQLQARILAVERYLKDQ

| Binder | RT Results (cpm) (Day 7), HIV-1 IIIB in CBMC, drug at 0 nM (no-drug baseline) | RT Results (cpm) (Day 7), HIV-1 IIIB in CBMC, drug at 125 nM | RT Results (cpm) (Day 7), HIV-1 IIIB in CBMC, drug at 600 nM | RT Results (cpm) (Day 7), HIV-1 IIIB in CBMC, drug at 3000 nM |
| --- | --- | --- | --- | --- |
| WMEWDREINNYTSLIHSLIEESQNQQERNEQELL (modifications not checked) [CJC-1646 (SEQ ID NO:93), native (unreactive) C34] | 49000 cpm and 46300 cpm and 47400 cpm | 5850 cpm and 5040 cpm and 5220 cpm | 4920 cpm and 5850 cpm and 5090 cpm | 5810 cpm and 6960 cpm and 5970 cpm |
| WMEWKREINNYTSLIHSLIEESQNQQERNEQELL (modifications not checked) [CJC-1655 (SEQ ID NO:32), C34 with linker-R1-R2-M inserted at position Asp5] | 71900 cpm and 54100 cpm and 51000 cpm | 6320 cpm and 6930 cpm and 5910 cpm | 6480 cpm and 11900 cpm and 6030 cpm | 7970 cpm and 5900 cpm and 6210 cpm |
